Assay [1] deals with SU.86.86 cells. Put plainly: Binding to SU.86.86 pancreatic cancer cells by flow cytometry. As to the method: Purified m5F1 and control antibodies at 1 ug/ml were added to 2×10^5 SU.86.86 cells and incubated for 1 hour at 4° C., washed twice with PBS containing 1% FBS, followed by incubation with 1 ug/ml of corresponding secondary antibodies (R-PE-conjugated goat F(ab′)2 anti-mouse IgG(H+L), Southern Biotech, Cat. No. 1032-09) at 4° C. for 1 hour. At the end of staining, samples were washed twice with PBS containing 1% FBS and analyzed by flow cytometer. All flow cytometric analyses were performed on a BD-LSR flow cytometer (Becton Dickinson) using the Cell Quest software.
(§1) Binding experiments were carried out for antibodies c5F1.v15, c5F1.v16, and c5F1.v24. […] Apoptosis assay was carried out for antibody c5F1.v15.
(Flow cytometry measures light scatter and fluorescence of single cells or particles in a stream.)

The test system of assay [2] is COLO 205 cells. Put plainly: Binding assay: flow cytometric binding of 5F1 antibodies to COLO 205 cells. As to conditions: for binding to Colo 205 (words): FIG. 3, 0.125 to 4 ug/ml. The procedure: Purified m5F1, c5F1-v0, c5F1-v15 and c5F1-v16 antibodies at the concentration ranging from 0.125 to 4 ug/ml were added to 1.5×10^5 COLO 205 cells and incubated for 30 min at 4° C., washed for twice with PBS containing 2% FBS and 0.05% NaN3, followed by incubation with 1 μg/ml of corresponding secondary antibodies (R-PE-conjugated goat F(ab′)2 anti-mouse IgG(H+L), Southern Biotech, Cat. No. 1032-09; or R-PE-conjugated goat anti-human IgG, Southern Biotech, Cat. No. 2040-09) at 4° C. for 30 min. At the end of staining, samples were washed twice with PBS containing 2% FBS and 0.05% NaN3 and analyzed by flow cytometer. All flow cytometric analyses were performed on a BD-LSR flow cytometer (Becton Dickinson) using the Cell Quest software.
Purified m5F1, c5F1-v0, c5F1-yl7, c5F1-v24 and c5F1-v25 antibodies at 1 ug/ml were added to 2×10^5 Colo 205 cells and incubated for 30 min at 4° C., washed for twice with PBS containing 1% FBS, followed by incubation with 1 ug/ml of corresponding secondary antibodies (R-PE-conjugated goat F(ab′)2 anti-mouse IgG(H+L), Southern Biotech, Cat. No. 1032-09; or R-PE-conjugated goat anti-human IgG, Southern Biotech, Cat. No. 2040-09) at 4° C. for 30 min. At the end of staining, samples were washed twice with PBS containing 1% FBS and 0.05% NaN3 and analyzed by flow cytometer. All flow cytometric analyses were performed on a BD-LSR flow cytometer (Becton Dickinson) using the Cell Quest software.

Assay [3] concerns COLO 205 cells. In words: Six-hour apoptosis assay (Annexin V / PI, FACS) in COLO 205. It counts as cell-based. As to conditions: 6 h. As to the method: (§2) 1.5×10^5 of COLO 205 cells were seeded into the wells of 96-well plates. Aliquots of purified m5F1, c5F1-v0, c5F1-v15, c5F1-v16 and control antibodies at the concentration ranging from 2 to 32 ug/ml were prepared freshly in culture medium and added to each well. The sample treated with m9E10 and h16C11A were used as isotype control. The treated cells were kept at 37° incubator for 6 h before FACS analysis for apoptosis. For cellular apoptosis assay, Annexin V staining was measured using Annexin-V-FITC Apoptosis Detection Kit (Strong Biotech, Cat. No. AVK250) following the manufacturer's instruction. In brief, the treated cells were harvested and resuspended in Annexin V binding buffer containing Annexin V-FITC at room temperature. After 15 min incubation in the dark, the cells were washed twice with 200 μl of Annexin V binding buffer. Before FACS analysis, 0.25 μg/ml of propidium iodide (PI) was added. All flow cytometric analyses were performed on a BD-LSR flow cytometer (Becton Dickinson) using the Cell Quest software. The Annexin VI positive and/or PI positive cells are considered apoptotic cells.
1.5×10^5 of Colo205 cells were seeded into the wells of 96-well plates. Aliquots of purified m5F1, c5F1, c5F1-v17, c5F1-v24, c5F1-v25 and control antibodies at the concentration ranging from 8 to 32 ug/ml were prepared freshly in culture medium and added to each well. The treated cells were kept at 37° incubator for 6 h before FACS analysis for apoptosis. For cellular apoptosis assay, Annexin V staining was measured using Annexin-V-FITC Apoptosis Detection Kit (Strong Biotech, Cat. No. AV 250) following the manufacturer's instruction. In brief, the treated cells were harvested and resuspended in Annexin V binding buffer containing Annexin V-FITC at room temperature. After 15 min incubation in the dark, the cells were washed twice with 200 ul of Annexin V binding buffer. Before FACS analysis, 0.25 ug/ml of propidium iodide (PI) was added. All flow cytometric analyses were performed on a BD-LSR flow cytometer (Becton Dickinson) using the Cell Quest software. The Annexin VI positive and/or PI positive cells are considered apoptotic cells.

The subject of assay [4] is SU.86.86 cells. Put plainly: Apoptosis induction of SU.86.86 cells (6 h, Annexin V / PI). Format: cell-based. As to the method: as §2, with “2×10^5” for “1.5×10^5”, “SU86.86” for “COLO 205”, “12-well” for “96-well”, “m5F1” for “m5F1, c5F1-v0, c5F1-v15, c5F1-v16 and control antibodies”, “Control antibody at 32 ug/ml was included for background signal measurement.” for “The sample treated with m9E10 and h16C11A were used as isotype control.”
as §1

B1: c5F1-v16: chimeric 5F1, heavy chain v16 (hinge C220S), light chain v0[L] (antibody)
heavy: EVQLQQSGPELVKPGASVRMSCTASGYTFTSYVMHWIKQKPGQGLDWIGYINPYNGGTQYNEKFKGKATLTSDKSSSTAYMELSSLTSEDSAVYYCARRTFPYYFDYWGQGTTLTVSSASTKGPSVFPLAPSSKSTSGGTAALGCLVKDYFPEPVTVSWNSGALTSGVHTFPAVLQSSGLYSLSSVVTVPSSSLGTQTYICNVNHKPSNTKVDKKVEPKSSDKTHTCPPCPAPELLGGPSVFLFPPKPKDTLMISRTPEVTCVVVDVSHEDPEVKFNWYVDGVEVHNAKTKPREEQYNSTYRVVSVLTVLHQDWLNGKEYKCKVSNKALPAPIEKTISKAKGQPREPQVYTLPPRDELTKNQVSLTCLVKGFYPSDIAVEWESNGQPENNYKTTPPVLDSDGSFFLYSKLTVDKSRWQQGNVFSCSVMHEALHNHYTQKSLSLSPGK
light: DVLMTQTPLSLPVSLGDQASISCRSSQSILHSNGNTYLEWYLQKPGQSPKLLIYKVSNRFSGVPDRFSGSGSGTDFTLKISRVEAEDLGVYYCFQGSHAPLTFGAGTKLELKRTVAAPSVFIFPPSDEQLKSGTASVVCLLNNFYPREAKVQWKVDNALQSGNSQESVTEQDSKDSTYSLSSTLTLSKADYEKHKVYACEVTHQGLSSPVTKSFNRGEC
For B1, the “binding to SU.86.86 cells” value in assay [1] is reported as “significant binding”. The “binding to Colo 205 (words)” value in assay [2] is “relatively less compared to c5F1”; in assay [2] (listed as c5F1v16) it was “significant binding”. Also, the “apoptosis-inducing activity in COLO 205” value in assay [3] (2 to 32 ug/ml, compared with m5F1) is listed as “almost as efficient as m5F1”. Also, the “% of Annexin V and/or PI positive cells” value came to 58% in assay [3] (Table 7, 4 ug/ml); 78% in assay [3] (Table 7, 8 ug/ml); 92% in assay [3] (Table 7, 16 ug/ml); 96% in assay [3] (Table 7, 32 ug/ml).

B2: m5F1: murine antibody 5F1, isotype murine IgG3; heavy chain V region SEQ ID NO:1, light chain V region SEQ ID NO:2 (antibody, V domains shown)
VH: MEWSWIFLFLLSGTAGVHSEVQLQQSGPELVKPGASVRMSCTASGYTFTSYVMHWIKQKPGQGLDWIGYINPYNGGTQYNEKFKGKATLTSDKSSSTAYMELSSLTSEDSAVYYCARRTFPYYFDYWGQGTTLTVSS
VL: MKLPVRLLVLMFWIPASSSDVLMTQTPLSLPVSLGDQASISCRSSQSILHSNGNTYLEWYLQKPGQSPKLLIYKVSNRFSGVPDRFSGSGSGTDFTLKISRVEAEDLGVYYCFQGSHAPLTFGAGTKLELK
modifications: Murine
As for B2, the “binding to SU.86.86 cells” value in assay [1] is “could bind”. The MFI in assay [1] (Table 14, antibody at 1 ug/ml) is recorded as 131. In addition, the “% of Annexin V and/or PI positive cells” value in assay [4] (2 ug/ml) worked out at 60%; in assay [4] (4 ug/ml), 72%; in assay [4] (8 ug/ml), 78%; in assay [4] (16 ug/ml) it was 89%; in assay [4] (32 ug/ml), 91%; in assay [3] (Table 7, 2 ug/ml) it was 35%. In addition, the “% of Annexin V and/or PI positive cells” value in assay [3] (Table 7, 4 ug/ml) is 53%; in assay [3] (Table 7, 8 ug/ml), 76%; in assay [3] (Table 7, 16 ug/ml), 92%; in assay [3] (Table 7, 32 ug/ml) it was 93%; in assay [3] (Table 11 Exp. 1, 8 ug/ml), 88%; in assay [3] (Table 11 Exp. 1, 16 ug/ml), 92%. Also, the “% of Annexin V and/or PI positive cells” value in assay [3] (Table 11 Exp. 1, 32 ug/ml) came to 92%; in assay [3] (Table 11 Exp. 2, 8 ug/ml), 89%; in assay [3] (Table 11 Exp. 2, 16 ug/ml), 94%; in assay [3] (Table 11 Exp. 2, 32 ug/ml), 96%. Also, the “apoptosis induction in SU.86.86 cells” value in assay [4] (2 to 32 ug/ml) was “induced apoptosis”. The “binding to Colo 205 (words)” value in assay [2] was “significant binding”. For the same molecule, in assay [2] (Table 10, antibodies at 1 ug/ml), the “Median Fluorescence Intensity (MFI)” value came out at 800.

The values above are taken from patent US7982017B2, “Antibodies recognizing a carbohydrate containing epitope on CD-43 and CEA expressed on cancer cells and methods using same” (BioAlliance C.V., priority 2007, dated 2011).
